Patent US20160083466A1 (Regeneron, published 2016)

T1: rat IL-25 expressed with a C-terminal myc-myc-hexahistidine tag (rat)
T1 construct: also called Rat IL-25-MMH
T1 chain: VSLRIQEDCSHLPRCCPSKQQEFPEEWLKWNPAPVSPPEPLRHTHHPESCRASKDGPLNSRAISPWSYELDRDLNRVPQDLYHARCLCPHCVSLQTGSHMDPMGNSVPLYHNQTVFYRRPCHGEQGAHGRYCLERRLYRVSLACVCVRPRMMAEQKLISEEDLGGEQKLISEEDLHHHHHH

T2: monkey IL-25 expressed with a C-terminal myc-myc-hexahistidine tag (M. fascicularis (cynomolgus monkey))
T2 construct: also called Monkey IL-25-MMH; MfIL-25-MMH
T2 chain: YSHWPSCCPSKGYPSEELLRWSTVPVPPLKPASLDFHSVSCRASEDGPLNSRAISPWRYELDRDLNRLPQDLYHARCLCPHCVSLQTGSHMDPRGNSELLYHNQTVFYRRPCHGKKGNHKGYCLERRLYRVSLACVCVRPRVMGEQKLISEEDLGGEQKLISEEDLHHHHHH

T3: human IL-25 expressed with a C-terminal myc-myc-hexahistidine tag (human)
T3 construct: also called hIL-25-MMH; Human IL-25-MMH
T3 chain: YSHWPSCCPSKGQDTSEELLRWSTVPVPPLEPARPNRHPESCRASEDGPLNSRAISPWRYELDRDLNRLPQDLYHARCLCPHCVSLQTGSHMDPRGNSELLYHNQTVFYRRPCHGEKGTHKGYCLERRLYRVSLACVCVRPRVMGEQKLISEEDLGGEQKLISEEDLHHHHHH

T4: mouse IL-25 expressed with a C-terminal myc-myc-hexahistidine tag (mouse)
T4 construct: also called Mouse IL-25-MMH; mIL-25-MMH
T4 chain: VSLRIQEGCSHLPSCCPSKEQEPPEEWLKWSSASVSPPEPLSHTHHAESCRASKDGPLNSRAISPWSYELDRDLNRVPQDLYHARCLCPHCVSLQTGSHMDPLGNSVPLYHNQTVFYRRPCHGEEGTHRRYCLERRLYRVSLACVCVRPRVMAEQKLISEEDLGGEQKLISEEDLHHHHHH

T5: human IL-25 expressed with a C-terminal myc-myc-hexahistidine tag (human)
T5 construct: also called human IL-25-MMH; hIL-25-MMH
T5 chain: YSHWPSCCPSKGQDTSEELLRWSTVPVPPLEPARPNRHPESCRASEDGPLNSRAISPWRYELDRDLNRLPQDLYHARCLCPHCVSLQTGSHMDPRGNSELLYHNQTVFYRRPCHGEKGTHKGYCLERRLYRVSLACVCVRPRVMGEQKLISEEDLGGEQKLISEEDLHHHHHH

T6: mouse IL-25 expressed with a C-terminal myc-myc-hexahistidine tag (mouse)
T6 construct: also called mouse IL-25-MMH; mIL-25-MMH
T6 chain: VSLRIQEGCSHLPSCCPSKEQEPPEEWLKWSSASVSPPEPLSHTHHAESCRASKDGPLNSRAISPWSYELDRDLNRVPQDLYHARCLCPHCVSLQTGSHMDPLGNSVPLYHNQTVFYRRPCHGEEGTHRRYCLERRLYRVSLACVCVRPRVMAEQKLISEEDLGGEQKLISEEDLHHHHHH

T7: rat IL-25 expressed with a C-terminal myc-myc-hexahistidine tag (rat)
T7 construct: also called rat IL-25-MMH
T7 chain: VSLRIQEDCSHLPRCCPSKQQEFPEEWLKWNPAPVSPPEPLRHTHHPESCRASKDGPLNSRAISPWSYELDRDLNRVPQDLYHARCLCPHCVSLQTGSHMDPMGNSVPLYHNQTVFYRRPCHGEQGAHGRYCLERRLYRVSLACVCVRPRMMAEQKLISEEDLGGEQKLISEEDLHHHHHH


Key:
[1] = biological target: T1, rat IL-25 expressed with a C-terminal …; test: SPR Biacore, antibody captured, 37C;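 as to 100 nM Monkey IL-25-MMH Bound (RU): biacore 4000 surface plasmon resonance biosensor measuring binding of IL-25-MMH to purified anti-IL-25 antibodies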;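 as to 100 nM Mouse IL-25-MMH Bound (RU): Real-time sensorgrams of IL-25-MMH binding to purified anti-IL-25 antibodies, rate constants obtained by fitting a 1:1 binding model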
Procedure: (§1) Equilibrium dissociation constants (KD values) for IL-25 binding to purified anti-IL-25 antibodies were determined using a real-time surface plasmon resonance biosensor assay on a Biacore 4000 instrument (GE Healthcare). […] All the IL-25 reagents were expressed with a C-terminal myc-myc-hexahistidine tag (referred to herein as “IL-25-MMH”). […] Kinetic association (kₐ) and dissociation (kd) rate constants were determined by fitting the real-time sensorgrams to a 1:1 binding model using Scrubber 2.0c curve fitting software.

[2] = biological target: T2, monkey IL-25 expressed with a …; test: SPR Biacore, antibody captured, 37C;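 as to 100 nM Monkey IL-25-MMH Bound (RU): biacore 4000 surface plasmon resonance biosensor measuring binding of IL-25-MMH to purified anti-IL-25 antibodies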;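 as to 100 nM Mouse IL-25-MMH Bound (RU): Real-time sensorgrams of IL-25-MMH binding to purified anti-IL-25 antibodies, rate constants obtained by fitting a 1:1 binding model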
Procedure: as §1

[3] = biological target: T3, human IL-25 expressed with a C-terminal …; test: BLI Octet, hIL-25-MMH captured on anti-Penta-His sensor, 25C
Procedure: Binding competition between anti-IL-25 monoclonal antibodies was determined using a real time, label-free bio-layer interferometry assay on an Octet QK384 biosensor (Pall ForteBio Corp.).
The biosensors were washed in HBST kinetics buffer in between every step of the experiment. The real-time binding response was monitored during the course of the experiment and the binding response at the end of every step was recorded.

[4] = biological target: T3, human IL-25 expressed with a C-terminal …; test: competition ELISA, 2 nM hIL-25-MMH binding to coated hIL-17RB-hFc; (*) below theoretical bottom of the assay
Procedure: (§2) Data analysis was performed using a sigmoidal dose-response model within Prism™ software (GraphPad). […] The absorbance values of the wells containing the highest concentration for each antibody were used to determine the percent maximum blockade.

[5] = biological target: T4, mouse IL-25 expressed with a C-terminal …; test: SPR Biacore, antibody captured, 37C;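 as to 100 nM Monkey IL-25-MMH Bound (RU): biacore 4000 surface plasmon resonance biosensor measuring binding of IL-25-MMH to purified anti-IL-25 antibodies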;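 as to 100 nM Mouse IL-25-MMH Bound (RU): Real-time sensorgrams of IL-25-MMH binding to purified anti-IL-25 antibodies, rate constants obtained by fitting a 1:1 binding model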
Procedure: as §1

[6] = biological target: T3, human IL-25 expressed with a C-terminal …; test: competition ELISA, 2 nM hIL-25-MMH binding to coated hIL-17RB-hFc
Procedure: as §2

[7] = biological target: T3, human IL-25 expressed with a C-terminal …; test: cell-based or functional assay
[8] = biological target: T2, monkey IL-25 expressed with a …; test: cell-based or functional assay
[9] = biological target: T1, rat IL-25 expressed with a C-terminal …; test: SPR Biacore, antibody captured, 25C;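 as to 100 nM Rat IL-25-MMH Bound (RU): purified anti-IL-25 antibodies were tested by real-time surface plasmon resonance on a Biacore 4000, with rate constants obtained from sensorgram fits to a 1:1 binding model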
Procedure: as §1

[10] = biological target: T4, mouse IL-25 expressed with a C-terminal …; test: SPR Biacore, antibody captured, 25C;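 as to 100 nM Rat IL-25-MMH Bound (RU): purified anti-IL-25 antibodies were tested by real-time surface plasmon resonance on a Biacore 4000, with rate constants obtained from sensorgram fits to a 1:1 binding model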
Procedure: as §1

[11] = biological target: T5, human IL-25 expressed with a C-terminal …; test: SPR Biacore, captured mAb, 25°C;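 also: biacore 4000 SPR with IL-25-MMH as analyte over purified anti-IL-25 antibodies, association and dissociation rates derived from fitting sensorgrams to a 1:1 binding model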
Procedure: as §1

[12] = biological target: T5, human IL-25 expressed with a C-terminal …; test: SPR Biacore, captured mAb, 37°C
Procedure: as §1

[13] = biological target: T6, mouse IL-25 expressed with a C-terminal …; test: SPR Biacore, captured mAb, 25°C and 37°C
Procedure: as §1

[14] = biological target: T7, rat IL-25 expressed with a C-terminal …; test: SPR Biacore, captured mAb, 25°C and 37°C
Procedure: as §1

Row | 100 nM Rat IL-25-MMH Bound (RU) [1] [RU] | 100 nM Monkey IL-25-MMH Bound (RU) [2] [RU] | Kd [2] [nM] | koff [2] [s⁻¹] | kon [2] [M⁻¹ s⁻¹] | t½ [2] [min] | 50 ug/mL mAb-1 Binding (nm) [3] [nm] | IC50 [4] [nM] | 100 nM Mouse IL-25-MMH Bound (RU) [5] [RU] | % Maximum blocking of 200 nM antibody [6] [%] | IC50, luciferase reporter cells, 5 pM hIL-25-MMH [7] [M] | IC50, luciferase reporter cells, 12 pM MfIL-25-MMH [8] [M] | 100 nM Rat IL-25-MMH Bound (RU) [9] [RU] | 100 nM Mouse IL-25-MMH Bound (RU) [10] [RU] | Binder | further results
1 | 8 | 50 | 0.0671 | 0.000101 | 1.51e+06 | 114 | 1.74 | 0.55 | 8 | 87 | 2.2e-10 | 1.4e-10 | 10 | 10 | H4H10907P (antibody, human IgG4, V domains shown, H4H prefix = human IgG4 Fc) VH: EVQLVESGGGLVQPGGSLRLSCAASGFTFSNYDIHWVRQVPGKGLEWISTIGSAGDTFYPGSVKGRFTISRENAKNSLYLQMNSLRAGDSAVYYCARGDNWNYVSWFFDLWGRGTLVTVSS VL: DIQLTQSPSFLSTSVGDRVTITCWASQDISSFLAWYQQKPGKAPKLLIYAASVLQSGVPSRFSGSGSGTEFTLTISSLQPEDFATYYCQQVNSYPITFGQGTRLEIK | Kd [1]: 85.4 nM; koff [1]: 0.0204 s⁻¹; kon [1]: 238000 M⁻¹ s⁻¹; t½ [1]: 0.6 min; Kd [5]: 137 nM; koff [5]: 0.0376 s⁻¹; kon [5]: 275000 M⁻¹ s⁻¹; t½ [5]: 0.3 min; Kd [9]: 66.9 nM; koff [9]: 0.0147 s⁻¹; kon [9]: 220000 M⁻¹ s⁻¹; t½ [9]: 0.8 min; Kd [10]: 58.7 nM; koff [10]: 0.0115 s⁻¹; kon [10]: 196000 M⁻¹ s⁻¹; t½ [10]: 1 min
2 | 0 | 72 | 0.0239 | 4.18e-05 | 1.75e+06 | 276 | 0.7 | 0.2 | 1 | 93 | 1.4e-10 | 3.9e-11 | 0 | 0 | H4H10883P (antibody, human IgG4, V domains shown, H4H prefix = human IgG4 Fc) VH: QVQLQESGPGLVKSSETLSLTCTVSGGSISSYYWSWIRQPPGKGLEWIGFIYYSGSTNYNPSLKSRVTFSVDTSKNHFSLKLNSVTATDTAVYYCARHYFDSGTYELGPFDYWGQGTLVTVSS VL: DIVMTQSPDSLAVSLGERATINCKSSQNILLTSSNKNYLTWYQQKPGQPPKLLIYWASIRESGVPDRFSGSGSGTDFTLTISSLQAEDVALYFCQQYYITPFTFGPGTKVDIK | 
3 | 2 | 66 | 0.0374 | 6.59e-05 | 1.76e+06 | 175 | 1.03 | 0.24 | 1 | 91 | 1.4e-10 | 6e-11 | 1 | 0 | H4H10903P (antibody, human IgG4, V domains shown, H4H prefix = human IgG4 Fc) VH: QVQLQESGPGLVKPSETLSLTCTVSGGSINSYSWTWIRQPPGKGLEWIGNIYNSENTNYNPSLKSRVTISVDTSKSQVSLKLNSVTAADTAVYYCARTYNWNYEIGAMGVWGQGTTVTVSS VL: not shown | binding result [9]: no binding (tested: 100 nM); binding result [10]: no binding (tested: 100 nM)
4 |  |  |  |  |  |  |  |  |  |  |  |  |  |  | H1M11009N (antibody, mouse IgG1, V domains shown, also called 12) VH: EVQLVESGGGLVEPGGSLRLSCVASGFTFSNAWMNWVRQAPGKGLEWVGHIERKTDGGTTDFAAPVKGRFTISRDDSKNTLYLQMNSLKTEDTAVYYCTTVGPYSVPFDYWGQGTLVTVSS VL: not shown | 100 nM Human IL-25-MMH Bound (RU) [11]: 30 RU; Kd [11]: 12.5 nM; koff [11]: 0.00304 s⁻¹; kon [11]: 242000 M⁻¹ s⁻¹; t½ [11]: 4 min; 100 nM Human IL-25-MMH Bound (RU) [12]: 30 RU; Kd [12]: 21.1 nM; koff [12]: 0.00829 s⁻¹; kon [12]: 393000 M⁻¹ s⁻¹; t½ [12]: 1.4 min; binding result [13]: no binding (tested: 100 nM); binding result [14]: no binding (tested: 100 nM)
